The source of these data is publication PMC10942606.

Common to all, as to assay: MST
For one series, the target named is T1, Pcf1-ΔWHD;Pcf2;Pcf3 (Schizosaccharomyces …, UniProt Q1MTN9;O13985;Q9Y825 1-470;1-512;1-408, del471-544||).
T1 sequence 1: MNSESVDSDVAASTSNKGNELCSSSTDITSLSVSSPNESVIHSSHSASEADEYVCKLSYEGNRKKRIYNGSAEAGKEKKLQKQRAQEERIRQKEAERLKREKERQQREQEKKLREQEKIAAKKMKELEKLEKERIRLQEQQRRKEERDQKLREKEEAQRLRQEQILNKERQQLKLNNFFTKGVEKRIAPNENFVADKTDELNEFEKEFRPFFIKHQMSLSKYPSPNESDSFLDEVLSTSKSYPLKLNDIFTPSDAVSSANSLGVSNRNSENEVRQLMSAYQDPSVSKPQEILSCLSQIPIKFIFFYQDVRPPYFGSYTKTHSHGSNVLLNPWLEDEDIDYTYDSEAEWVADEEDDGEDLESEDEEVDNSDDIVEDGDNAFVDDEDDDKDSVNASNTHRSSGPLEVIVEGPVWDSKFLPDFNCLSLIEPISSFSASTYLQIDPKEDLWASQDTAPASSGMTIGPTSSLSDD
T1 sequence 2: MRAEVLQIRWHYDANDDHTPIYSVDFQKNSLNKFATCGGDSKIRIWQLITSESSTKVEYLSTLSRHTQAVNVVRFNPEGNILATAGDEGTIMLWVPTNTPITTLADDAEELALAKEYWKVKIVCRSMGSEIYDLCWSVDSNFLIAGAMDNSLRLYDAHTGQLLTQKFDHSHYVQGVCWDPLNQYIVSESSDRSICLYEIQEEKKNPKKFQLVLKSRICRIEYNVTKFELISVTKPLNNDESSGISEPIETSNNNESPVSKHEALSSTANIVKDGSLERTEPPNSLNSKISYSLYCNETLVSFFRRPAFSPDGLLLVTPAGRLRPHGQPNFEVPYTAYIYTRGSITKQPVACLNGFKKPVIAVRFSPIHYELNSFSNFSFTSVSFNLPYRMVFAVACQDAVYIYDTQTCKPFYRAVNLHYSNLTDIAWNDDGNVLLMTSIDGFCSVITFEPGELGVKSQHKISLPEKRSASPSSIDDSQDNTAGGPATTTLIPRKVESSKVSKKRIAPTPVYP
T1 sequence 3: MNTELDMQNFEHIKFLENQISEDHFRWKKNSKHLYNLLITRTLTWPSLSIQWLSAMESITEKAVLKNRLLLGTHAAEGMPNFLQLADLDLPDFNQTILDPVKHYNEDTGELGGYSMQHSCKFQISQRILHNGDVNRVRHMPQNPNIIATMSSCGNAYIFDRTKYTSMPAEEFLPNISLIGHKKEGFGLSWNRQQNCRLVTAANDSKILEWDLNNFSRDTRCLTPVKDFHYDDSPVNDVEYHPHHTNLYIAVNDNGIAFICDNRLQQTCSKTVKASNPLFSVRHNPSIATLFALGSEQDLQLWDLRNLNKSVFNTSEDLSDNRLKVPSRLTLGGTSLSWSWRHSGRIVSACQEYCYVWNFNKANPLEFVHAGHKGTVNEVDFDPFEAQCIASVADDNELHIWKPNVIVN

For the next series, the target named is T2, Pcf1_KER* (Schizosaccharomyces pombe, UniProt Q1MTN9 56-170, R147E;K150E;K154E;R161E;K168E).
T2 sequence: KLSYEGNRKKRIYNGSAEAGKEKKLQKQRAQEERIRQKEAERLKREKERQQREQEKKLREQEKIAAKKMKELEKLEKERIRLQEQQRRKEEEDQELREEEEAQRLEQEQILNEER

For another series, the target named is T3, Pcf1_WHD (Schizosaccharomyces pombe, UniProt Q1MTN9 471-544).
T3 sequence: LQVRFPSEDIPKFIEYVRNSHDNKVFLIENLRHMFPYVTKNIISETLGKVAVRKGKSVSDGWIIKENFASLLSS

Another series addresses T4, Pcf1-KER*;Pcf2;Pcf3 (Schizosaccharomyces …, UniProt Q1MTN9;O13985;Q9Y825 1-544;1-512;1-408, R147E;K150E;K154E;R161E;K168E||).
T4 sequence 1: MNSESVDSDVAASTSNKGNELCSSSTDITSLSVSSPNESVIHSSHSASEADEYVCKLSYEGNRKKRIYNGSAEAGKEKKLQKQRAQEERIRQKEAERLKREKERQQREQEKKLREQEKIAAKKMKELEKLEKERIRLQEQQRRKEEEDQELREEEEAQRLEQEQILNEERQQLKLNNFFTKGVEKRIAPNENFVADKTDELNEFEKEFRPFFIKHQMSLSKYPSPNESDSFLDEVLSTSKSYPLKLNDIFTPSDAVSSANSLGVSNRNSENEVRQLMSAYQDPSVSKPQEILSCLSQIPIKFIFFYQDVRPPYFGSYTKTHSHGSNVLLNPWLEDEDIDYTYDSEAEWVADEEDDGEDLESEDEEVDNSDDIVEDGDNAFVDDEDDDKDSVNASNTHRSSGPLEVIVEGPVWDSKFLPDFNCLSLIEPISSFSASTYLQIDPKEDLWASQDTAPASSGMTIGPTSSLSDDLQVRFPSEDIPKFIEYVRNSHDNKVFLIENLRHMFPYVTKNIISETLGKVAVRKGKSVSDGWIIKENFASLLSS
T4 sequence 2: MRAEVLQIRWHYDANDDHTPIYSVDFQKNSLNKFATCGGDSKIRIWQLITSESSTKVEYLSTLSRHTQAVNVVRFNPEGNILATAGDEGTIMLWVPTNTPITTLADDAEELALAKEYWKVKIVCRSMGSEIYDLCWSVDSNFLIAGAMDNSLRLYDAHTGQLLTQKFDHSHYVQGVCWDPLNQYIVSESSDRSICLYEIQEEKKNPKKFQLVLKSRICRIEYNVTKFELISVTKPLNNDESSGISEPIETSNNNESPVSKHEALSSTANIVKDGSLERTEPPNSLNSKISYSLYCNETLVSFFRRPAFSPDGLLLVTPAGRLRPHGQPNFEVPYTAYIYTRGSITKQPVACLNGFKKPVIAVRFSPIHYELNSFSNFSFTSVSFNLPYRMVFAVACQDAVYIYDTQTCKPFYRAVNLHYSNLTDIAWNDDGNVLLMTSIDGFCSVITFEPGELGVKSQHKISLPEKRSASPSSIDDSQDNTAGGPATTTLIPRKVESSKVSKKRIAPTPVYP
T4 sequence 3: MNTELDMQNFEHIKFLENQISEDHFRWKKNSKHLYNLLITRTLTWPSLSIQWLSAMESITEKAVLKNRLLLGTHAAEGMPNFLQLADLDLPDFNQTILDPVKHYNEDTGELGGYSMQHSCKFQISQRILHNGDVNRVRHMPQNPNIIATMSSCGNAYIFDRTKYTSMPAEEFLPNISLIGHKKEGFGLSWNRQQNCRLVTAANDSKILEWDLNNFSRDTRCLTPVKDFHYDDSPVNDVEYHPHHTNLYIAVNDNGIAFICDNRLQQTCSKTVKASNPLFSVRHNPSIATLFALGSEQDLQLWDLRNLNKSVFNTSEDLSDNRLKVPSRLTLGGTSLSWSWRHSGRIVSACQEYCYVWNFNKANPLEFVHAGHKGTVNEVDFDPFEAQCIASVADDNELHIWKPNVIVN

B1: 40 bp dsDNA, Alexa488 (dsDNA)
DNA 1: ATCAATATCCACCTGCAGATACTACCAAAAGTGTATTTGG
DNA 2: CCAAATACACTTTTGGTAGTATCTGCAGGTGGATATTGAT
On to B1, for which the results for the “apparent K (half saturation)” value with Pcf1-ΔWHD;Pcf2;Pcf3, in the series with Pcf1_KER* and with Pcf1-KER*;Pcf2;Pcf3 were 700 ± 100 nM, 12.2 ± 0.7 µM and 2800 ± 400 nM, respectively. Further, the binding result with Pcf1_WHD was “no binding”.
